Results reported in US20200071711, “MODULAR CONSTRUCTION OF SYNTHETIC GENE CIRCUITS IN MAMMALIAN CELLS USING MATHEMATICAL MODELING OF CLOSED LOOP TRANSCRIPTIONAL REPRESSORS” (Tsinghua University, published 2020).

How the values were obtained:
TALER9 (synthetic) = assay: cell_activity; conditions: for activity (mKate2/TagBFP): cognate 0.01
TALER10 (synthetic) = assay: cell_activity; conditions: for activity (mKate2/TagBFP): cognate 0.00
TALER5 (synthetic) = assay: cell_activity
TALER26 = biological target: T1, TALER26 (synthetic, UniProt P14727 SEQ:263-1244); assay: cell_activity; HEK293, two sites flanking CMVmini; conditions: tags: EYFP-2A upstream, SV40 NLS
T1 chain: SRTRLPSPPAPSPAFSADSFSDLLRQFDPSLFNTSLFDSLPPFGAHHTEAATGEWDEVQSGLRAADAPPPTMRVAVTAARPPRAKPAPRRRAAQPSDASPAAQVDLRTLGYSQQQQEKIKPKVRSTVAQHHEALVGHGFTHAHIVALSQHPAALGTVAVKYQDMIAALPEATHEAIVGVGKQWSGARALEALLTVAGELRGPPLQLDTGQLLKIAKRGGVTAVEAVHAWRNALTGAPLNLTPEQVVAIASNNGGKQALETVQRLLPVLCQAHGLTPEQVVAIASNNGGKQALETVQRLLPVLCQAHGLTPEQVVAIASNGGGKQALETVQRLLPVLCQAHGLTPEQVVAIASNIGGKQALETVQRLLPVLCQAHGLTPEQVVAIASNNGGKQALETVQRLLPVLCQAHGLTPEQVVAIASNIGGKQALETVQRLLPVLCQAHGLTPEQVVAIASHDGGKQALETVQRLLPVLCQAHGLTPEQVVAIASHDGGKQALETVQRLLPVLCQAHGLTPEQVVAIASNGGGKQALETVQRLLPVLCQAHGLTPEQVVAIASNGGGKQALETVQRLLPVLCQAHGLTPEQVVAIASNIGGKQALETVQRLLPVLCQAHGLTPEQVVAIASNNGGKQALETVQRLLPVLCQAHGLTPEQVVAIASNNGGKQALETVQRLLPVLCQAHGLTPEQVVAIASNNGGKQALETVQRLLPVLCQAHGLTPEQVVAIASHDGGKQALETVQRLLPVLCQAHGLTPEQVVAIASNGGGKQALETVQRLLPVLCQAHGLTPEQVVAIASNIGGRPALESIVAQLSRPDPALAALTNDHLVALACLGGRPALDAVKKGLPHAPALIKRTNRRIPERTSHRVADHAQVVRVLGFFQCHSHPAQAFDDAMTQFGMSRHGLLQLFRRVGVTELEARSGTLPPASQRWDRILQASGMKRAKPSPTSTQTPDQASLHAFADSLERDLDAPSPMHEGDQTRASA

TALER24 = biological target: T2, TALER24 (synthetic, UniProt P14727 SEQ:1-806); assay: cell_activity; HEK293, two sites flanking CMVmini; conditions: tags: EYFP-2A upstream, SV40 NLS
T2 chain: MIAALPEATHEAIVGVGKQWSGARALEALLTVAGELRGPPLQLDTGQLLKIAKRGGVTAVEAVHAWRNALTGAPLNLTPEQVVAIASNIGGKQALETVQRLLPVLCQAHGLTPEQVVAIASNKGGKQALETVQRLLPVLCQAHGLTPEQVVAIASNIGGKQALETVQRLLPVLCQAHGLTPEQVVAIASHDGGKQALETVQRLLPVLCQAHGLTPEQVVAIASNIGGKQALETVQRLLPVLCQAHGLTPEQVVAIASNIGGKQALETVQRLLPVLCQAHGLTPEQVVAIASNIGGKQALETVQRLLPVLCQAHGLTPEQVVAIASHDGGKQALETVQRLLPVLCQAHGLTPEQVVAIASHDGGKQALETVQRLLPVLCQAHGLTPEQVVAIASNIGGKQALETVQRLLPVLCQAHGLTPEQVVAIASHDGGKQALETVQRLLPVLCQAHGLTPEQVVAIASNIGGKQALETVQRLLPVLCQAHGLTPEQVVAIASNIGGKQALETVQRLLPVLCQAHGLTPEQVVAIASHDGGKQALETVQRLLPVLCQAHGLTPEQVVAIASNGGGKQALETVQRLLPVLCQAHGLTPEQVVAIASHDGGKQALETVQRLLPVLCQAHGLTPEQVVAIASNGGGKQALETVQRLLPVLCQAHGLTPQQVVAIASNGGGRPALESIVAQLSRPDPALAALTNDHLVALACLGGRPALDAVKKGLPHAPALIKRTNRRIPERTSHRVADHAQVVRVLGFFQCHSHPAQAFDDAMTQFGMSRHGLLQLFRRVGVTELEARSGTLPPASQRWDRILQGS

[1] = HEK293, two sites flanking CMVmini

| Molecule | activity (mKate2/TagBFP) (TALER9 (synthetic)) | activity (mKate2/TagBFP) (TALER10 (synthetic)) | other results |
| --- | --- | --- | --- |
| TACCCCTCTCCGCTTCT (double strand) [T14 site] | 4.42 | 1.46 | – |
| TACCTCATCAGGAACATGTT (double strand) [T10 site] | 2.54 | – | binding signal (fold repression) (TALER10 (synthetic); [1]): 1310 |
| TACGACTCACTATA (double strand) [T1 site] | 5.14 | 2.51 | – |
| TACTGAATAATCAACACT (double strand) [T5 site] | – | – | binding signal (fold repression) (TALER5 (synthetic); [1]): 17.9 |
| TACTGAATAATCAACACTGAATTCTAGGCGTGTACGGTGGGAGGCCTATATAAGCAGAGCTCGTTTAGTGAACCGTCAGATCGCCTCGAGTACTGAATAATCAACACTTACTGAATAATCAACACTTACTGAATAATCAACACT (double strand) [T5-CMVmini-T5x3] | – | – | binding signal (fold repression) (TALER5 (synthetic); HEK293, three 3' sites (15.43 with one)): 281 |
| TATAGAACCGATCCTCCCATT (double strand) [T9 site] | – | 0.84 | binding signal (fold repression) (TALER9 (synthetic); [1]): 636 |
| TATTTCGACGCTCATTCT (double strand) [T12 site] | 2.38 | 1.04 | – |
| TCCCGGAAGCCGATGCT (double strand) [T13 site] | 2.17 | 0.93 | – |
| TCCGCCTCCCTCTC (double strand) [T29 site] | 2.94 | 1.19 | – |
| TGCCCTCGGCCATCAGAAGGATCTT (double strand) [T16 site] | 3.97 | 1.66 | – |
| TGTCGTCTTCTGCACTTAT (double strand) [T21 site] | 2.95 | 1.06 | – |
| TTTATTCCCTGACA (double strand) [T35 site] | 2.15 | 1.03 | – |
| T26 site (dsDNA) DNA 1: TGGTAGACCTTAGGGCTA DNA 2: TAGCCCTAAGGTCTACCA | – | – | binding signal (TALER26): 148 fold repression |
| T24 site (dsDNA) DNA 1: TAGACAAACCACAACTCTT DNA 2: AAGAGTTGTGGTTTGTCTA | – | – | binding signal (TALER24): 10.9 fold repression |
